In article doi:10.1101/2021.04.12.439405 (bioRxiv, 2021):

Columns and labels:
Assay in all cases: native MS
[1] = molecular target: MukB^N (MukB Neck) (E. coli)
[2] = molecular target: MukB^HN (MukB Head-Neck) (E. coli)
[3] = molecular target: the molecule itself

Sequence of Acyl Carrier Protein (AcpP), co-purified with MukB proteins (P0A6A8 whole entry): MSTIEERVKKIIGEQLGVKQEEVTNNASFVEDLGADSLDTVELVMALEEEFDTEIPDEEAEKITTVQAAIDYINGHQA

Molecule	stoichiometry N [1]	stoichiometry N [2]	binding result [3]
MukB^N (MukB Neck) (domain or fragment)	2		
Acyl Carrier Protein (AcpP), co-purified with MukB proteins (from UniProt P0A6A8 1-78) (natural protein)	1	1	
MukB-His (wild type MukB) (natural protein, E. coli, UniProt P22523 1-1486, looked up) MIERGKFRSLTLINWNGFFARTFDLDELVTTLSGGNGAGKSTTMAAFVTALIPDLTLLHFRNTTEAGATSGSRDKGLHGKLKAGVCYSMLDTINSRHQRVVVGVRLQQVAGRDRKVDIKPFAIQGLPMSVQPTQLVTETLNERQARVLPLNELKDKLEAMEGVQFKQFNSITDYHSLMFDLGIIARRLRSASDRSKFYRLIEASLYGGISSAITRSLRDYLLPENSGVRKAFQDMEAALRENRMTLEAIRVTQSDRDLFKHLISEATNYVAADYMRHANERRVHLDKALEFRRELHTSRQQLAAEQYKHVDMARELAEHNGAEGDLEADYQAASDHLNLVQTALRQQEKIERYEADLDELQIRLEEQNEVVAEAIERQQENEARAEAAELEVDELKSQLADYQQALDVQQTRAIQYNQAIAALNRAKELCHLPDLTADCAAEWLETFQAKELEATEKMLSLEQKMSMAQTAHSQFEQAYQLVVAINGPLARNEAWDVARELLREGVDQRHLAEQVQPLRMRLSELEQRLREQQEAERLLADFCKRQGKNFDIDELEALHQELEARIASLSDSVSNAREERMALRQEQEQLQSRIQSLMQRAPVWLAAQNSLNQLSEQCGEEFTSSQDVTEYLQQLLEREREAIVERDEVGARKNAVDEEIERLSQPGGSEDQRLNALAERFGGVLLSEIYDDVSLEDAPYFSALYGPSRHAIVVPDLSQVTEHLEGLTDCPEDLYLIEGDPQSFDDSVFSVDELEKAVVVKIADRQWRYSRFPEVPLFGRAARESRIESLHAEREVLSERFATLSFDVQKTQRLHQAFSRFIGSHLAVAFESDPEAEIRQLNSRRVELERALSNHENDNQQQRIQFEQAKEGVTALNRILPRLNLLADDSLADRVDEIRERLDEAQEAARFVQQFGNQLAKLEPIVSVLQSDPEQFEQLKEDYAYSQQMQRDARQQAFALTEVVQRRAHFSYSDSAEMLSGNSDLNEKLRERLEQAEAERTRAREALRGHAAQLSQYNQVLASLKSSYDTKKELLNDLQRELQDIGVRADSGAEERARIRRDELHAQLSNNRSRRNQLEKALTFCEAEMDNLTRKLRKLERDYFEMREQVVTAKAGWCAVMRMVKDNGVERRLHRRELAYLSADDLRSMSDKALGALRLAVADNEHLRDVLRMSEDPKRPERKIQFFVAVYQHLRERIRQDIIRTDDPVEAIEQMEIELSRLTEELTSREQKLAISSRSVANIIRKTIQREQNRIRMLNQGLQNVSFGQVNSVRLNVNVRETHAMLLDVLSEQHEQHQDLFNSNRLTFSEALAKLYQRLNPQIDMGQRTPQTIGEELLDYRNYLEMEVEVNRGSDGWLRAESGALSTGEAIGTGMSILVMVVQSWEDESRRLRGKDISPCRLLFLDEAARLDARSIATLFELCERLQMQLIIAAPENISPEKGTTYKLVRKVFQNTEHVHVVGLRGFAPQLPETLPGTDEAPSQAS			binds
